The target of this assay is T1, anti-TNFα antibody-Fab (IgG-Fab derived from anti-TNFα monoclonal antibody, adalimumab) (Homo sapiens, UniProt P01834+P01857).
T1 construct: cleaving a humanized monoclonal IgG formulation as a starting material into a Fab fragment and an Fc fragment by papain; purchased
Put plainly: Biacore 3000 surface plasmon resonance, affinity of SpG-β1 mutants for immobilized IgG-Fab. Type of assay: binding. The note with it: Table 2, Example 3, GST-fused one-domain peptide; for koff / kon: 25° C., pH 7.4; for KA Vs. Wild: fold of wild-type KA. (SPR reads the build-up and loss of mass on a sensor chip optically.)

Where no end group is shown, it is not given here.

As a reminder, the koff is the first-order rate constant of dissociation.

As to “K10R/K13T/E15Q/K28R/F30L/D36G/E42V: GST-fused one-domain SpG-β1 mutant, amino acid SEQ ID NO: 69 (TTYKLILNGRTLTGQTTTEAVDAATAERVLKQYANGNGVDGVWTYDDATKTFTVTE; also: GST-fused, end not given here)”, the KA stood at 3.3e+06 M⁻¹, the dissociation rate constant (koff) came to 0.0035 s⁻¹, the kon was 115000 s/M and the “KA Vs. Wild” value is 8.8.

Take “K13S/E19I/F30L: GST-fused one-domain SpG-β1 mutant, amino acid SEQ ID NO: 29 (TTYKLILNGKTLSGETTTIAVDAATAEKVLKQYANDNGVDGEWTYDDATKTFTVTE; also: GST-fused, end not given here)”: the KA is 2.23e+06 M⁻¹, the kon was found to be 137000 s/M and the “KA Vs. Wild” value amounted to 6.0.

On to “K13S/E19V/F30L/Y33F: GST-fused one-domain SpG-β1 mutant, amino acid SEQ ID NO: 81 (TTYKLILNGKTLSGETTTVAVDAATAEKVLKQFANDNGVDGEWTYDDATKTFTVTE; also: GST-fused, end not given here)”, for which the KA was determined as 1.54e+06 M⁻¹, the koff turned out to be 0.0064 s⁻¹, the kon was 98400 s/M and the “KA Vs. Wild” value was 4.1.

Consider “K13T/D22N/A23T/T25S/F30L/A48T: GST-fused one-domain SpG-β1 mutant, amino acid SEQ ID NO: 73 (TTYKLILNGKTLTGETTTEAVNTASAEKVLKQYANDNGVDGEWTYDDTTKTFTVTE; also: GST-fused)”, for which the KA worked out at 1.06e+06 M⁻¹, the koff was found to be 0.0098 s⁻¹, the kon was 104000 s/M and the “KA Vs. Wild” value came to 2.8.

As to “K13T/E15Q/E19I/E27D/V39I/D47H: GST-fused one-domain SpG-β1 mutant, amino acid SEQ ID NO: 77 (TTYKLILNGKTLTGQTTTIAVDAATADKVFKQYANDNGIDGEWTYDHATKTFTVTE; also: GST-fused)”, the KA is 1.85e+06 M⁻¹, the koff turned out to be 0.0067 s⁻¹, the kon is 124000 s/M and the “KA Vs. Wild” value is recorded as 4.9.

For “K13T/E15Q/E19V/F30L/V39L: GST-fused one-domain SpG-β1 mutant, amino acid SEQ ID NO: 61 (TTYKLILNGKTLTGQTTTVAVDAATAEKVLKQYANDNGLDGEWTYDDATKTFTVTE; also: GST-fused)”, the KA worked out at 1.42e+06 M⁻¹, the koff is 0.0063 s⁻¹, the kon was found to be 89800 s/M and the “KA Vs. Wild” value stood at 3.8.

In the case of “K13T/E15T/E19I/T25M/E27G/F30L/N35Y: GST-fused one-domain SpG-β1 mutant, amino acid SEQ ID NO: 63 (TTYKLILNGKTLTGTTTTIAVDAAMAGKVLKQYAYDNGVDGEWTYDDATKTFTVTE; also: GST-fused)”, the KA was found to be 1.28e+06 M⁻¹, the off-rate constant (koff) was 0.0063 s⁻¹, the kon turned out to be 80700 s/M and the “KA Vs. Wild” value was found to be 3.4.

In the case of “K13T/E19I/A23D/V39L: GST-fused one-domain SpG-β1 mutant, amino acid SEQ ID NO: 31 (TTYKLILNGKTLTGETTTIAVDDATAEKVFKQYANDNGLDGEWTYDDATKTFTVTE; also: GST-fused)”, the KA was 1.36e+06 M⁻¹, the kon was found to be 84300 s/M and the “KA Vs. Wild” value is listed as 3.6.

Regarding “K13T/E19I/A23T/F30L/Y33F/D47N/K50R: GST-fused one-domain SpG-β1 mutant, amino acid SEQ ID NO: 45 (TTYKLILNGKTLTGETTTIAVDTATAEKVLKQFANDNGVDGEWTYDNATRTFTVTE; also: GST-fused)”, the KA was 2.63e+06 M⁻¹, the koff was found to be 0.0046 s⁻¹, the kon turned out to be 120000 s/M and the “KA Vs. Wild” value came out at 7.0.

Values taken from patent US10556944B2, “Fab region-binding peptide” (priority 2013, dated 2020).
